Measurements published in patent publication US10444224B2, “Method for RNA detection and quantification” (Cornell University, priority 2011, dated 2019).
Entries after “also recorded” stand apart in the source; their conditions may differ.

Tests used:
[1] = Tolerance of Spinach stem-loop 2 to mutation, assayed by DFHBI fluorescence; type: biochemical
Procedure: Secondary structure prediction was performed using Mfold online software. Mutated and truncated RNAs were created by ordering single stranded DNA templates (Integrated DNA Technologies) with the desired mutations or truncations and PCR amplifying these sequences to create double stranded DNA templates using primers which included a 5′ T7 promoter sequence. PCR products were then purified with PCR purification columns (Qiagen) and used as templates for in vitro T7 transcription reactions (Epicentre).
To determine if stem-loop 2 primarily has a structural role in Spinach, mutations were introduced at the stem-loop 2 positions shown in FIG. 11A to test the tolerance of Spinach to mutations at these positions. This was assayed by DFHBI fluorescence. In these experiments, the minimized Spinach structure (SEQ ID NO: 8) in which stem-loop 2 is predicted to sit adjacent to the large internal loop (FIG. 11A). […] To determine if stem-loop 2 can be swapped with a different stem-loop with similar stability without perturbing Spinach-induced DFHBI fluorescence, the UUCG loop sequence was replaced with GAAA and the 4-base pair stem was replaced with a different but still complementary 4-base pair stem (FIG. 11A, SEQ ID NO: 9). […] However, when mismatched bases were inserted in the stem region to prevent the formation of a duplex, DFHBI fluorescence was lost (FIG. 11B).

[2] = tested on: HEK293T cells expressing 5S-Spinach; experiment: Live mammalian cell imaging of Spinach-tagged 5S RNA; type: cell-based, human
Procedure: HEK293 cells cultured on 24-well glass-bottom dishes were transfected with 0.2 μg of pAV-5S construct expressing full length human 5S RNA from its endogenous promoter fused through its 3′ end with either a control sequence (lambda fragment ˜400 nt) or the Spinach aptamer sequence using FuGene 6 (Roche) per manufacturer's instructions. Imaging experiments were performed 48 hours after transfection. Thirty minutes prior to experiment, HEK293 cell media was replaced with imaging media (DMEM with no phenol red or vitamins and supplemented with 25 mM HEPES, 5 mM MgSO4, and 10 μg/ml Hoechst 33342) and 20 μM DFHBI or vehicle were added to the cells to promote RNA-fluorophore complex formation. To induce stress granule formation, cells were treated with 100 mM MgSO4 or 600 mM sucrose for 30 minutes prior to imaging. Live fluorescence images of HEK293 cells were taken with a CoolSnap HQ2 CCD camera through a 100× oil objective mounted on a Nikon TE2000 microscope and analyzed with the NIS-Elements software. A filter cube typically used for fluorescein/EGFP with sputter coated excitation filter 470/40, dichroic mirror 495 (long pass), and emission filter 525/50 (Chroma Technology) was used to detect Spinach.

[3] = literature value used as reference; cited from earlier work
[4] = Spinach-based RNA sensor fluorescence in response to guanine; type: biochemical
[5] = Excitation and emission spectra of the 24-2-DFHBI complex; type: physicochemical; details: 24-2 bound to DFHBI
Description: Unless otherwise stated, all chemistry reagents were purchased from Acros Organics and all cell culture reagents were purchased from Invitrogen. Commercially available starting reagents were used without further purification. DFHBI was synthesized as described in PCT Application Publ. No. WO/2010/096584 to Jaffrey and Paige; Paige and Jaffrey, “RNA Mimics of Green Fluorescent Protein,” Science 333(6042):642-646 (2011), each of which is hereby incorporated by reference in its entirety. Flash chromatography was conducted with 200-400 mesh silica gel 60 (EMD) and with ACS or HPLC grade solvents (Fisher). NMR spectra were recorded on a Bruker DMX-500 spectrometer at 500 MHz. Chemical shifts were reported as parts per million (ppm) downfield from an internal tetramethylsilane standard ([…] for ^1H NMR) or from solvent references. […] UPLC was performed at a flow rate of 0.5 ml/min (monitored with a PDA from 210-500 nm) using a Waters C18 column. Absorbance spectra were recorded with a Thermo Scientific NanoDrop 2000 spectrophotometer with cuvette capability. Fluorescence excitation and emission spectra were measured with a Perkin Elmer LS-55 fluorescence spectrometer.
After eight rounds of SELEX at pH 8.0 using DFHBI-agarose, clones were identified that switched on DFHBI fluorescence. […]

[6] = Magnesium dependence of 24-2-DFHBI fluorescence; type: biochemical
Description: FIGS. 3A-C illustrate the secondary structures of three RNAs: the original 24-2 structure (3A, SEQ ID NO: 5), a minimized structure 24-2-min (3B, SEQ ID NO: 7), and a first generation derivative of 24-2, designated “Spinach” (3C, SEQ ID NO: 6). RNA structure is shown as predicted by Mfold web-based software (Zuker, “Mfold Web Server for Nucleic Acid Folding and Hybridization Prediction,” Nucl. Acids Res. 31(13): 3406-3415 (2003), which is hereby incorporated by reference in its entirety). In FIG. 3A, bases that could be removed without significant loss in fluorescence are indicated in purple, which includes several bases from the largest loop and largest stem. A-U, G-U and any mismatched base pairs were mutated to G-C base pairs and tested for their effect on 24-2 fluorescence. G-C mutations that reduced 24-2 fluorescence are indicated in red, those which had no effect are indicated by asterisk (*), and those which increased the fluorescence of 24-2 are indicated in green. Base substitutions indicated by an asterisk (*) helped to validate structural predictions because substituting one base pair for another (e.g. A-U for G-C) had negligible effect or increased fluorescence. […] FIG. 3D illustrates the magnesium dependence of 24-2-DFHBI fluorescence. The fluorescence of the 24-2-DFHBI complex was measured at pH 7.4 in the presence of increasing magnesium concentrations. […]

SEQ ID NO: 16: mismatch stem-loop structure introduced into Spinach; three mismatched nucleotides prevent duplex formation (AUGCUUCGGACG; listed as RNA, chemistry not given here)
DFHBI fluorescence of stem-loop 2 variant relative to Spinach / original stem-loop 2 [1]: reduces fluorescence intensity to baseline

CCC(=C/[C@H](C)C/C=C/C(C)=C/[C@@H](C)C(=O)[C@@H](C)[C@H](O)[C@@H](C)C/C(C)=C/C(=O)O)/C=C/[C@@H]1OC(=O)C=C[C@@H]1C [leptomycin B]
effect on 5S-Spinach localization ([2]; after washout of ML-60218): 5S-Spinach accumulates in the nucleus

lucifer yellow
absolute quantum yield of reference fluorophore [3]: 0.21

Cc1c(-c2cc(NS(=O)(=O)c3ccccc3Cl)n(C)n2)sc2ccc(Cl)cc12 [ML-60218]
effect on 5S-Spinach fluorescence ([2]; Pol III inhibitor treatment): reduces 5S-Spinach fluorescence to baseline levels

Cc1cc2cc3cc(C)c(N)cc3nc2cc1N [acridine yellow]
absolute quantum yield of reference fluorophore [3]: 0.47

B1: guanine sensor: Spinach-based turn-on RNA sensor for guanine (nucleic acid)
chain: GACGCGACUGAAUGAAAUGGUGAAGGACGGGUCCAGAUAAUCGCGUGGAUAUGGCACGCAAGUUUCUACCGGGCACCGUAAAUGUCCGACUCUUGUUGAGUAGAGUGUGAGCUCCGUAACUAGUCGCGUC
modifications: chemistry not given here
increase in fluorescence in the presence of guanine ([4]; 0.1 μM RNA, 10 μM DFHBI, 100 μM Gua, versus no guanine): 32 fold
EC50 ([4]; dose-response, 10 μM fluorophore, read-out: half-maximal fluorescence (EC50), guanine): 1500 nM

B2: 24-2: RNA aptamer clone from SELEX that switches on DFHBI fluorescence (nucleic acid)
chain: GGGAGACGCAACUGAAUGAAAUGGUGAAGGACGGGUCCAGGUGUGGCUGCUUCGGCAGUGCAGCUUGUUGAGUAGAGUGUGAGCUCCGUAACUAGUCGCGUCAC
modifications: listed as RNA, chemistry not given here
notes: RNA aptamer clone from SELEX that switches on DFHBI fluorescence
emission peak [5]: 501 nm
excitation peak [5]: 469 nm
fraction of maximal fluorescence ([6]; 0.1 mM magnesium): greater than 50%
magnesium concentration at maximal fluorescence ([6]; pH 7.4): 3 mM

B3: SEQ ID NO: 8: derivative (minimized) Spinach sequence containing a shortened stem-loop 2 (nucleic acid)
chain: GACGCGACUGAAUGAAAUGGUGAAGGACGGGUCCAGCUGCUUCGGCAGCUUGUUGAGUAGAGUGUGAGCUCCGUAACUAGUCGCGUC
modifications: listed as RNA, chemistry not given here
DFHBI fluorescence of stem-loop 2 variant relative to Spinach / original stem-loop 2 [1]: essentially identical fluorescence

B4: SEQ ID NO: 9: Spinach derivative with a replacement stem-loop at stem-loop 2 (nucleic acid)
chain: GACGCGACUGAAUGAAAUGGUGAAGGACGGGUCCAGGCACGAAAGUGCCUUGUUGAGUAGAGUGUGAGCUCCGUAACUAGUCGCGUC
modifications: listed as RNA, chemistry not given here
DFHBI fluorescence of stem-loop 2 variant relative to Spinach / original stem-loop 2 [1]: did not reduce DFHBI fluorescence; also recorded: nearly identical fluorescence intensities
